The data set concerns the molecule itself. The experiment in a line: crystal structure; oxidized EcAhpC_(1-186)-YFSKHN; hanging-drop vapour diffusion, 1.6 M ammonium sulfate, 100 mM MES pH 6.5, 5% dioxane, 4.5 mg/ml protein, 291 K; 2.7 Å; decamer in the asymmetric unit.

B1: chimeric EcAhpC_(1-186)-YFSKHN (enzyme, E. coli | human)
chain: MSLINTKIKPFKNQAFKNGEFIEITEKDTEGRWSVFFFYPADFTFVCPTELGDVADHYEELQKLGVDVYAVSTDTHFTHKAWHSSSETIAKIKYAMIGDPTGALTRNFDNMREDEGLADRATFVVDPQGIIQAIEVTAEGIGRDASDLLRKIKAAQYVASHPGEVCPAKWKEGEATLAPSLDLVGKYFSKHN
notes: C-terminal YFSKHN segment (helix with the YF motif) of human Prx2; Decamer (alpha2)5 in the crystal; In the oxidized form an intermolecular disulphide joins C47 and C166' of the two subunits of each dimer; the reduced form came from soaking oxidized crystals in 1 mM TCEP; The forward primer (NcoI, ATG GCA ATG TCC) may add residues before M1; also called chimeric Prx; Ox; copies: 10
In general, stoichiometry N refers to a count of units in the complex or per binding partner. Turning to B1, the “stoichiometry N” value came out at 10.

For the origin of these results see publication PMC5124861, “Transition steps in peroxide reduction and a molecular switch for peroxide robustness of prokaryotic peroxiredoxins” (Scientific Reports, 2016).
